Experimental data reported in patent US20180303937A1, “A COMPOSITION FOR CONTROLLED RELEASE OF A BIOMOLECULE, METHOD OF PREPARATION AND USES THEREOF” (CENTRO DE NEUROCIENCIAS E BIOLOGIA CELULAR, priority 2015, published 2018).

Tested on: SC-1 mouse fibroblasts
Assay: Cytotoxicity of BSA-dsDNA51.7-AuNR (Celltiter-Glo ATP assay)
Type: cell-based
Details: 50 μg/mL NR; irradiation 1.25 to 2 W/cm^2, 2 min
Procedure: FIG. 7: Cytotoxicity of BSA-dsDNA51.7-AuNR. Mouse fibroblasts were seeded on a 96 well plate (4×10^3 cells/well), left to adhere for 24 h and then incubated with different concentrations of BSA-dsDNA51.7-AuNR for 4 h. After incubation, the cells were washed with medium to remove non-internalized AuNR. Some of the conditions were irradiated for 2 min with 1.25 or 2 W/cm^2. Then, the plate was left in the incubator for 24 h. The ATP production was measured by a Celltiter-Glo Luminescent Cell Viability Assay (Promega).
Cytotoxicity of BSA-dsDNA51.7-AuNR. SC-1 mouse fibroblasts were grown in DMEM supplemented with 10% fetal bovine serum (FBS), at 37° C. in a fully humidified air containing 5% CO2. To assess the cytotoxicity of gold NRs, fibroblasts were seeded on a 96 well plate (4×10^3 cells/well), left to adhere for 24 h and then incubated with BSA-dsDNA51.7-AuNR for 4 h. After incubation, the cells were washed with medium to remove non-internalized NR. In some conditions, after incubation with BSA-dsDNA51.7-AuNR, the cells were washed and irradiated with a fiber coupled Roithner laser (785 nm). Each well was placed below the end of the fibre and irradiated with a power density of 1.25 and 2 W/cm^2 for 2 min. Then cells were left in the incubator for 24 h and the ATP production was measured by a Celltiter-Glo Luminescent Cell Viability Assay (Promega).

BSA-dsDNA51.7-AuNR: gold nanorods carrying BSA via dsDNA with melting temperature 51.7° C.
cytotoxic effects (ATP production): do not show significant cytotoxic effects
